According to PMC8234031, “Modular Assembly of Phosphite Dehydrogenase and Phenylacetone Monooxygenase for Tuning Cofactor Regeneration” (Biomolecules, 2021):

T1: PTDHI (phosphite dehydrogenase with a C-terminal RIDD tag)
T1 chain: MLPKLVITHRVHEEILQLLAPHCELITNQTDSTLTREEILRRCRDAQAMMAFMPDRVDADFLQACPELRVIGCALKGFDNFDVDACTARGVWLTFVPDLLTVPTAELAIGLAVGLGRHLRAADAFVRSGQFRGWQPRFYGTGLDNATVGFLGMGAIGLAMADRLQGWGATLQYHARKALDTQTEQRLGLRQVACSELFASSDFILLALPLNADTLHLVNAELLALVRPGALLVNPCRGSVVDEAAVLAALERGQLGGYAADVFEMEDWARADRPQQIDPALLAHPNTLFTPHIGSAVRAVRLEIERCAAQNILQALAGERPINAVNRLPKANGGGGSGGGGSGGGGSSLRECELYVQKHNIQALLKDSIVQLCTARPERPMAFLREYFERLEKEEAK


Experiments:
[1] = biological target: the molecule itself; experiment: SEC; each purified tagged protein alone, in the absence of any other tagged protein; Superdex 200 (10/300), 50 mM Tris–HCl with 150 mM NaCl, pH 7.5
[2] = biological target: T1, PTDHI (phosphite dehydrogenase with a …); experiment: as above; settings: both partners purified

| Binder | stoichiometry N [1] | stoichiometry N [2] |
| --- | --- | --- |
| PAMOI (phenylacetone monooxygenase with a C-terminal RIDD tag) (enzyme) MAGQTTVDSRRQPPEEVDVLVVGAGFSGLYALYRLRELGRSVHVIETAGDVGGVWYWNRYPGARCDIESIEYCYSFSEEVLQEWNWTERYASQPEILRYINFVADKFDLRSGITFHTTVTAAAFDEATNTWTVDTNHGDRIRARYLIMASGQLSVPQLPNFPGLKDFAGNLYHTGNWPHEPVDFSGQRVGVIGTGSSGIQVSPQIAKQAAELFVFQRTPHFAVPARNAPLDPEFLADLKKRYAEFREESRNTPGGTHRYQGPKSALEVSDEELVETLERYWQEGGPDILAAYRDILRDRDANERVAEFIRNKIRNTVRDPEVAERLVPKGYPFGTKRLILEIDYYEMFNRDNVHLVDTLSAPIETITPRGVRTSEREYELDSLVLATGFDALTGALFKIDIRGVGNVALKEKWAAGPRTYLGLSTAGFPNLFFIAGPGSPSALSNMLVSIEQHVEWVTDHIAYMFKNGLTRSEAVLEKEDEWVEHVNEIADETLYPMTASWYTGANVPGKPRVFMLYVGGFHRYRQICDEVAAKGYEGFVLTGGGGSGGGGSGGGGSSLRECELYVQKHNIQALLKDSIVQLCTARPERPMAFLREYFERLEKEEAK | 2 | – |
| PTDHI (phosphite dehydrogenase with a C-terminal RIDD tag) (enzyme, PTDH taken as the thermostable A176R variant of PDB 4E5P (cited in Figure 1); the exact pCRE2 variant and C-terminus are not printed. RIDD taken as the conventional RI-alpha docking domain …) MLPKLVITHRVHEEILQLLAPHCELITNQTDSTLTREEILRRCRDAQAMMAFMPDRVDADFLQACPELRVIGCALKGFDNFDVDACTARGVWLTFVPDLLTVPTAELAIGLAVGLGRHLRAADAFVRSGQFRGWQPRFYGTGLDNATVGFLGMGAIGLAMADRLQGWGATLQYHARKALDTQTEQRLGLRQVACSELFASSDFILLALPLNADTLHLVNAELLALVRPGALLVNPCRGSVVDEAAVLAALERGQLGGYAADVFEMEDWARADRPQQIDPALLAHPNTLFTPHIGSAVRAVRLEIERCAAQNILQALAGERPINAVNRLPKANGGGGSGGGGSGGGGSSLRECELYVQKHNIQALLKDSIVQLCTARPERPMAFLREYFERLEKEEAK | – | 2 |
